Tests used:
Experiment in all cases: SPR
Details in all cases: biotin (Biotin DecaLabel); SPR: PBS + 0.05% Tween 20, 25 C, 10 ul/min, SA chip (BIAcore 3000); ELISA: DNA coated at 10 ug/ml in Reacti-bind DNA coating solution, anti-GST detection …
[1] = tested on: ComE1 (PM1665), GST removed (Pasteurella multocida NCTC 10322/ATCC 43137?)
[2] = tested on: Ms0826, GST removed (M. succiniproducens)
[3] = tested on: Hi1008, GST removed (Haemophilus influenzae NCTC 8470/ATCC 9332 Pittman type D?)
[4] = tested on: APL_1406, GST removed (Actinobacillus pleuropneumoniae serovar 15 HS143?)
[5] = tested on: Aa1426, GST removed (Aggregatibacter (Actinobacillus) actinomycetemcomitans HK1651 (JP2 clone)?)

In the case of pUC19 (biotinylated), the Kd [1] is reported as 7.3 µM, the Kd [2] is reported as 46 µM and the Kd [3] is reported as 5 µM. The Kd [4] was 4 µM and the Kd [5] was 16 µM.
